This assay deals with wild type pokeweed antiviral protein (PAP) (pokeweed) (UniProt P10297). The assay is described as follows: cell-based or functional assay.
Sequence of UniProt P10297 (P10297 23-285 limits assumed): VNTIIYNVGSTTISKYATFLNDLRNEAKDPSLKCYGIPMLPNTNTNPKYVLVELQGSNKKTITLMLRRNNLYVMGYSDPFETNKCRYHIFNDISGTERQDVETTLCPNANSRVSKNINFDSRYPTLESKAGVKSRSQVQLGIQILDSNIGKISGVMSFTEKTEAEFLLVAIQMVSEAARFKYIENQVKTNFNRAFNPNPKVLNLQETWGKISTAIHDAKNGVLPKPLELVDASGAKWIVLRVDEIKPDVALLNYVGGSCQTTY

Substance “yeast wild type ribosomal protein L3 (full length) (from UniProt P14126 1-387)” displayed a transformation frequency of tobacco with L3+PAP (NT243) of 24%.

For the origin of these results see patent US20120042415A1.
